Reference: the Human Domainome abundance scans (Beltran et al. 2025)
± gives the uncertainty stated by the source.

B1: Ankyrin-3, residues 4094 to 4171; numbered along this chain, Q12955 (parent)
chain: MAIVADHLGLSWTELARELNFSVDEINQIRVENPNSLISQSFMLLKKWVTRDGKNATTDALTSVLTKINRIDIVTLLE

Variants of: B1
Assay: abundance fitness (aPCA) (normalised: wild type 0, dead -1); higher = more abundant; growth selection in yeast, the domain comes from the species named
Details: Homo sapiens

Going from MAIVADHLGLSWTELARELNFSVDEINQIRVENPNSLISQSFMLLKKWVTRWGKNATTDALTSVLTKINRIDIVTLLE [D52W] to MAIVADHLGLSWTELARELNFSVDEINQIRVENPNSLISQSFMLLKKWVTREGKNATTDALTSVLTKINRIDIVTLLE [D52E], the abundance fitness rises from -0.874 ± 0.18 to -0.025 ± 0.074.

MAIVADHLGLSWTELARELNFSVDEINQIRVENPNSLISQSFMLLKKWTTRDGKNATTDALTSVLTKINRIDIVTLLE [V49T] and MAIVADHLGLSWTELARELNFSVDEINQIRVENPNSLISQSFMLLKKWSTRDGKNATTDALTSVLTKINRIDIVTLLE [V49S] are within error of each other in abundance fitness: -0.115 ± 0.077 for the first, -0.034 ± 0.065 for the second.

MAIVADHLGLSWTELARELNFSVDEINQIRVENPNSLISQSFMLLKKWITRDGKNATTDALTSVLTKINRIDIVTLLE [V49I] and MAIVADHLGLSWTELARELNFSVDEINQIRVENPNSLISQSFMLLKKWKTRDGKNATTDALTSVLTKINRIDIVTLLE [V49K] are within error of each other in abundance fitness: -0.041 ± 0.082 for the first, -0.093 ± 0.098 for the second.

First: MAIVADHLGLSWTELARELNFSVDEINQIRVENPNSLISQSFMLLKKWWTRDGKNATTDALTSVLTKINRIDIVTLLE [V49W]
Second: MAIVADHLGLSWTELARELNFSVDEINQIRVENPNSLISQSFMLLKKWLTRDGKNATTDALTSVLTKINRIDIVTLLE [V49L]
The abundance fitness of the first is lower: -0.361 ± 0.092 for the first, -0.058 ± 0.06 for the second.

MAIVADHLGLSWTELARELNFSVDEINQIRVENPNSLISQSFMLLKKWNTRDGKNATTDALTSVLTKINRIDIVTLLE [V49N] and MAIVADHLGLSWTELARELNFSVDEINQIRVENPNSLISQSFMLLKKWRTRDGKNATTDALTSVLTKINRIDIVTLLE [V49R] are within error of each other in abundance fitness: 0.057 ± 0.17 for the first, 0.024 ± 0.057 for the second.

Compared with MAIVADHLGLSWTELARELNFSVDEINQIRVENPNSLISQSFMLLKKWQTRDGKNATTDALTSVLTKINRIDIVTLLE [V49Q], MAIVADHLGLSWTELARELNFSVDEINQIRVENPNSLISQSFMLLKKWPTRDGKNATTDALTSVLTKINRIDIVTLLE [V49P] is lower in abundance fitness: 0.07 ± 0.1 for the first, -1.02 ± 0.19 for the second.

MAIVADHLGLSWTELARELNFSVDEINQIRVENPNSLISQSFMLLKKWGTRDGKNATTDALTSVLTKINRIDIVTLLE [V49G] and MAIVADHLGLSWTELARELNFSVDEINQIRVENPNSLISQSFMLLKKWCTRDGKNATTDALTSVLTKINRIDIVTLLE [V49C] are within error of each other in abundance fitness: -0.168 ± 0.044 for the first, -0.095 ± 0.07 for the second.

Compared with MAIVADHLGLSWTELARELNFSVDEINQIRVENPNSLISQSFMLLKKWMTRDGKNATTDALTSVLTKINRIDIVTLLE [V49M], MAIVADHLGLSWTELARELNFSVDEINQIRVENPNSLISQSFMLLKKWDTRDGKNATTDALTSVLTKINRIDIVTLLE [V49D] is lower in abundance fitness: -0.082 ± 0.074 for the first, -0.392 ± 0.14 for the second.

Going from MAIVADHLGLSWTELARELNFSVDEINQIRVENPNSLISQSFMLLKKWATRDGKNATTDALTSVLTKINRIDIVTLLE [V49A] to MAIVADHLGLSWTELARELNFSVDEINQIRVENPNSLISQSFMLLKKWFTRDGKNATTDALTSVLTKINRIDIVTLLE [V49F], the abundance fitness falls from 0.022 ± 0.051 to -0.154 ± 0.11.

MAIVADHLGLSWTELARELNFSVDEINQIRVENPNSLISQSFMLLKKWETRDGKNATTDALTSVLTKINRIDIVTLLE [V49E] and MAIVADHLGLSWTELARELNFSVDEINQIRVENPNSLISQSFMLLKKWYTRDGKNATTDALTSVLTKINRIDIVTLLE [V49Y] are within error of each other in abundance fitness: 0.087 ± 0.089 for the first, 0.021 ± 0.15 for the second.

MAIVADHLGLSWTELARELNFSVDEINQIRVENPNSLISQSFMLLKKWVTIDGKNATTDALTSVLTKINRIDIVTLLE [R51I] and MAIVADHLGLSWTELARELNFSVDEINQIRVENPNSLISQSFMLLKKWVTTDGKNATTDALTSVLTKINRIDIVTLLE [R51T] are within error of each other in abundance fitness: -0.616 ± 0.35 for the first, -1.02 ± 0.29 for the second.

MAIVADHLGLSWTELARELNFSVDEINQIRVENPNSLISQSFMLLKKWVTKDGKNATTDALTSVLTKINRIDIVTLLE [R51K] and MAIVADHLGLSWTELARELNFSVDEINQIRVENPNSLISQSFMLLKKWVTDDGKNATTDALTSVLTKINRIDIVTLLE [R51D] are within error of each other in abundance fitness: -0.531 ± 0.12 for the first, -0.637 ± 0.46 for the second.

MAIVADHLGLSWTELARELNFSVDEINQIRVENPNSLISQSFMLLKKWVTLDGKNATTDALTSVLTKINRIDIVTLLE [R51L] and MAIVADHLGLSWTELARELNFSVDEINQIRVENPNSLISQSFMLLKKWVTCDGKNATTDALTSVLTKINRIDIVTLLE [R51C] are within error of each other in abundance fitness: -0.829 ± 0.096 for the first, -0.744 ± 0.26 for the second.

MAIVADHLGLSWTELARELNFSVDEINQIRVENPNSLISQSFMLLKKWVTQDGKNATTDALTSVLTKINRIDIVTLLE [R51Q] and MAIVADHLGLSWTELARELNFSVDEINQIRVENPNSLISQSFMLLKKWVTMDGKNATTDALTSVLTKINRIDIVTLLE [R51M] are within error of each other in abundance fitness: -0.994 ± 0.21 for the first, -0.682 ± 0.18 for the second.

MAIVADHLGLSWTELARELNFSVDEINQIRVENPNSLISQSFMLLKKWVTPDGKNATTDALTSVLTKINRIDIVTLLE [R51P] and MAIVADHLGLSWTELARELNFSVDEINQIRVENPNSLISQSFMLLKKWVTYDGKNATTDALTSVLTKINRIDIVTLLE [R51Y] are within error of each other in abundance fitness: -0.77 ± 0.11 for the first, -0.773 ± 0.37 for the second.

MAIVADHLGLSWTELARELNFSVDEINQIRVENPNSLISQSFMLLKKWVTWDGKNATTDALTSVLTKINRIDIVTLLE [R51W] and MAIVADHLGLSWTELARELNFSVDEINQIRVENPNSLISQSFMLLKKWVTGDGKNATTDALTSVLTKINRIDIVTLLE [R51G] are within error of each other in abundance fitness: -0.503 ± 0.31 for the first, -0.499 ± 0.082 for the second.

MAIVADHLGLSWTELARELNFSVDEINQIRVENPNSLISQSFMLLKKWVTHDGKNATTDALTSVLTKINRIDIVTLLE [R51H] and MAIVADHLGLSWTELARELNFSVDEINQIRVENPNSLISQSFMLLKKWVTADGKNATTDALTSVLTKINRIDIVTLLE [R51A] are within error of each other in abundance fitness: -0.848 ± 0.25 for the first, -0.78 ± 0.12 for the second.

Work on MAIVADHLGLSWTELARELNFSVDEINQIRVENPNSLISQSFMLLKKWVTVDGKNATTDALTSVLTKINRIDIVTLLE [R51V] yielded an abundance fitness of -0.789 ± 0.12.
